Assay results published in patent US8163516B2 (Algenol Biofuels Inc., priority 2008, dated 2012).
Where two headings read alike, the source gives them in different places. Values belong to the molecule of their own block, whether it stands above or below them.

Legend:
[1] = tested on: Zymomonas mobilis ADH II (with Pdc) in intact Synechocystis PCC 6803 cells, strain 6803-pVZ-PisiA (pVZ-PisiA-Pdc-AdhII); assay: Ethanol production by intact cells of strain 6803-pVZ-PisiA after addition of acetaldehyde (Lineweaver-Burk); format: cell-based, Synechocystis PCC 6803 (Zymomonas mobilis AdhII)
Protocol: Methods: Synechocystis PCC 6803 wild type and the transgenic strain “6803-pVZ-PisiA”, corresponding to the above described Synechocystis pVZ-PisiA-Pdc-AdhII, were washed twice with BG11 (centrifugation 15 min, 4500 rpm, 4° C.; Rotina 420R, Hettich) and redissolved in BG11. Aliquots of 2 ml were spiked with acetaldehyde. The assays were incubated at room temperature under illumination. Samples of 250 μl were removed in defined time intervals (5 min or 10 min) and centrifuged (3 min, 14000 rpm, room temperature, Micro 200R, Hettich).
Ethanol was quantified with a described protocol. The method is based on oxidation of ethanol catalyzed by alcohol dehydrogenase (Sigma, Adh of S. cerevisiae). NADH formed in this reaction, reacts with the PMS/MTT reagent to a dye.
OD750 of the culture was 0.56.
This experiment was repeated with a different culture of strain 6803-pVZ-PisiA of OD750 of 1.353 and a chlorophyll concentration of 4.6 μg/ml. Similar results were obtained.

[2] = tested on: Zymomonas mobilis ADH II, crude extract of Synechocystis strain 6803-pVZ-PisiA (pVZ-PisiA-Pdc-AdhII); assay: Adh activity of crude extract of strain 6803-pVZ-PisiA in the direction of ethanol formation (Lineweaver-Burk); format: biochemical; settings: for Km: read-out: Km for acetaldehyde
Protocol: For preparation of crude extracts, cells were harvested, washed with 40 mM MES/Tris (pH 6.5), 1 mM DTT and broken (beadbeater, 2×10 min). The supernatant of a centrifugation (15 min, 14000 rpm, 4° C., Micro 200R, Hettich) was used for the determination of Adh activity in cells.
The initial velocity was calculated from the dE/min at 340 nm.
In order to compare the dates acquired with intact cells, the kinetic constants of alcohol dehydrogenase in crude extracts of strain 6803-pVZ-PisiA were measured. […] A graphical representation of the results obtained is given in form of a “Lineweaver-Burk” plot (FIG. 8).
In a second experiment the Adh activity was measured at pH 7.5. NADH and NADPH were used as co-substrates.

[3] = biological target: T1, Synechocystis sp. PCC 6803 alcohol dehydrogenase SynAdh (slr1192, BAA18840), wild type, SEQ ID NO:4, overexpressed, crude extract (Synechocystis sp. PCC 6803, UniProt P74721); assay: Acetaldehyde reduction by crude extract of Synechocystis overexpressing SynAdh, varied cosubstrate (Lineweaver-Burk); format: biochemical; settings: pH 6.1
T1 construct: PCC 6803; crude cell extract
T1 sequence (P74721 1-336): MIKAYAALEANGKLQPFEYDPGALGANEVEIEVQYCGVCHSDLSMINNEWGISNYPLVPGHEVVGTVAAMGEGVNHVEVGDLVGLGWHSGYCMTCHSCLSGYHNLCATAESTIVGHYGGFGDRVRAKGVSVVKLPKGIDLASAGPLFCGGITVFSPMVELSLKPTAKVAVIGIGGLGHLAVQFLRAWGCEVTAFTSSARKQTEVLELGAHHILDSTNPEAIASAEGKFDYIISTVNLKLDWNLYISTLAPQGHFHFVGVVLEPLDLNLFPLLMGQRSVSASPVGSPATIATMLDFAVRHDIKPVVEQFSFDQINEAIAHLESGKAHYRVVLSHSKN
Protocol: The Adh enzyme from Synechocystis was further characterized by preparing crude cell extracts from Synechocystis PCC6803 overexpressing SynAdh.
For preparation of crude extracts, cells were pelleted, dissolved in buffer supplemented with 1 mM DTT and broken (beadbeater, 2×10 min, glass beads with 100 μm diameter). The supernatant of a centrifugation (15 min, 14000 rpm, 4° C., Micro 200R, Hettich) was used for the experiments.
The Adh activity was measured as rate of the increase of the absorbance at 340 nm. […] The reaction was started by addition of an acetaldehyde solution to a final concentration of 0.125 mM and the rate of decrease of the absorbance at 340 nm was measured. […] Protein was determined by the method of Lowry.
Measurements were performed at pH 6.1.

[4] = tested on: Zymomonas mobilis ADH I (ZmAdhI, AAV89860), SEQ ID NO:2; settings: literature values; ranges given jointly for ADH I and ADH II; cited from earlier work
[5] = tested on: Zymomonas mobilis ADH II (ZmAdhII); settings: literature values; ranges given jointly for ADH I and ADH II; cited from earlier work
[6] = substrate: NC(=O)C1=CN([C@@H]2O[C@H](COP(=O)(O)OP(=O)(O)OC[C@H]3O[C@@H](n4cnc5c(N)ncnc54)[C@H](OP(=O)(O)O)[C@@H]3O)[C@@H](O)[C@H]2O)C=CC1; assay: cells, lysate or membranes; settings: other: acetaldehyde reduction, crude extract, pH 6.1
[7] = substrate: NC(=O)C1=CN([C@@H]2O[C@H](COP(=O)(O)OP(=O)(O)OC[C@H]3O[C@@H](n4cnc5c(N)ncnc54)[C@H](O)[C@@H]3O)[C@@H](O)[C@H]2O)C=CC1; assay: cells, lysate or membranes; settings: other: acetaldehyde reduction, crude extract, pH 6.1
[8] = substrate: NC(=O)c1ccc[n+]([C@@H]2O[C@H](COP(=O)([O-])OP(=O)(O)OC[C@H]3O[C@@H](n4cnc5c(N)ncnc54)[C@H](OP(=O)(O)O)[C@@H]3O)[C@@H](O)[C@H]2O)c1; assay: purified protein, by the assay type; settings: other: ethanol oxidation
[9] = substrate: NC(=O)C1=CN([C@@H]2O[C@H](COP(=O)(O)OP(=O)(O)OC[C@H]3O[C@@H](n4cnc5c(N)ncnc54)[C@H](OP(=O)(O)O)[C@@H]3O)[C@@H](O)[C@H]2O)C=CC1; assay: purified protein, by the assay type; settings: other: acetaldehyde reduction
[10] = substrate: NC(=O)c1ccc[n+]([C@@H]2O[C@H](COP(=O)([O-])OP(=O)(O)OC[C@H]3O[C@@H](n4cnc5c(N)ncnc54)[C@H](O)[C@@H]3O)[C@@H](O)[C@H]2O)c1; assay: purified protein, by the assay type; settings: other: ethanol oxidation
Protocol: (§1) Fraction 2 of the purification was used for the measurement of the kinetic parameters of the SynAdh as described in the following.
(§2) Both ethanol oxidation and acetaldehyde reduction were analyzed at different pH values. Experiments were made at pH 7.5 in presence of high concentrations of KCl in order to mimic the intracellular conditions.
For measurements at pH 8.5 HEPES/KOH was substituted by 30 mM Tris/HCl (pH 8.5), KCl was omitted.
(§3) The Km and vmax values of SynAdh for the different substrates were determined with Lineweaver-Burk plots.

[11] = substrate: CCO; assay: purified protein, by the assay type; settings: other: ethanol oxidation
[12] = substrate: NC(=O)C1=CN([C@@H]2O[C@H](COP(=O)(O)OP(=O)(O)OC[C@H]3O[C@@H](n4cnc5c(N)ncnc54)[C@H](O)[C@@H]3O)[C@@H](O)[C@H]2O)C=CC1; assay: purified protein, by the assay type; settings: other: acetaldehyde reduction
[13] = substrate: CC=O; assay: Acetaldehyde reduction (forward reaction) by purified SynAdh, Km determination; format: biochemical, Synechocystis sp. PCC 6803; settings: other: acetaldehyde reduction
Protocol: as §1, §2
For measurements at pH 6.0 HEPES/KOH was substituted by 30 mM MES/KOH (pH 6.0), KCl was omitted.
as §3

[14] = pH 7.5, NADH 0.25 M or NADPH 0.21 M

Molecule: CC=O [acetaldehyde]
Km ([1]; OD750 0.56): 18 µM
Vmax ([1]; OD750 0.56): 3.2 µmol/L/min
Vmax ([1]; repeat, OD750 1.353): 4.35 µmol/L/min
Km ([1]; repeat, OD750 1.353, chlorophyll 4.6 μg/ml): 25 µM
Vmax ([1]; repeat, using chlorophyll as reference): 0.95 µmol/L/mg
Vmax ([2]; pH 6.5, NADH in excess): 7.2 μMol L^−1 mg^−1 chlorophyll
Km ([2]; pH 6.5, NADH in excess): 45 µM
Vmax [2, 14]: 0.89 μMol L^−1 mg^−1 chlorophyll
Km [2, 14]: 100 µM

vmax for NADH [3]: 1.6 μMol min^−1 ml^−1 crude extract
Molecule: NC(=O)C1=CN([C@@H]2O[C@H](COP(=O)(O)OP(=O)(O)OC[C@H]3O[C@@H](n4cnc5c(N)ncnc54)[C@H](O)[C@@H]3O)[C@@H](O)[C@H]2O)C=CC1 [NADH, reduced nicotinamide-adenine dinucleotide]

vmax for NADPH [3]: 0.4 μMol min^−1 ml^−1 crude extract
Molecule: NC(=O)C1=CN([C@@H]2O[C@H](COP(=O)(O)OP(=O)(O)OC[C@H]3O[C@@H](n4cnc5c(N)ncnc54)[C@H](OP(=O)(O)O)[C@@H]3O)[C@@H](O)[C@H]2O)C=CC1 [NADPH]

Molecule: NC(=O)c1ccc[n+]([C@@H]2O[C@H](COP(=O)([O-])OP(=O)(O)OC[C@H]3O[C@@H](n4cnc5c(N)ncnc54)[C@H](O)[C@@H]3O)[C@@H](O)[C@H]2O)c1 [NAD^+, nicotinamide-adenine dinucleotide]
Km [4]: 73 µM
Km [5]: 110 µM

Molecule: CCO [ethanol]
Km [4]: 24 µM
Km [5]: 140 µM

B1: Synechocystis sp. PCC 6803 alcohol dehydrogenase SynAdh (slr1192, BAA18840), wild type, SEQ ID NO:4, overexpressed, crude extract (Synechocystis sp. PCC 6803 … (protein)
chain: T1 sequence (P74721 1-336)
Km [6]: 15 µM
Km [7]: 1000 µM

B2: Synechocystis sp. PCC 6803 alcohol dehydrogenase SynAdh (slr1192, BAA18840), wild type, SEQ ID NO:4, purified (Synechocystis sp. PCC 6803 substr. Kazusa) (protein)
chain: T1 sequence (P74721 1-336)
Km ([8]; pH 7.5, 150 mM KCl, pH 7.5): 15 μM μM
Km ([8]; pH 8.5): 15 μM μM
Km ([9]; pH 6.0): 20 μM μM
Km ([9]; pH 7.5, 150 mM KCl, pH 7.5): 15 μM μM
Km ([9]; purified enzyme): 15 µM
Km ([10]; pH 7.5, 150 mM KCl, pH 7.5): 10 mM mM
Km ([10]; pH 8.5): 10 mM mM
Km ([11]; pH 7.5, 150 mM KCl, pH 7.5): 23 mM mM
Km ([11]; pH 8.5): 59 mM mM
Km ([12]; pH 7.5, 150 mM KCl, pH 7.5): 1000 μM μM
Km ([12]; purified enzyme): 1000 µM
Km ([13]; pH 6.0): 200 μM μM
Km ([13]; pH 7.5, 150 mM KCl, pH 7.5): 180 μM μM
Km ([13]; purified enzyme): 200 µM
